Source: US20200062863A1 (CSL BEHRING, published 2020)

Assays:
[1] = target: T1, human FXIIa (human, UniProt P00748 20-615, limits assumed); test: cell-based or functional assay
T1 sequence: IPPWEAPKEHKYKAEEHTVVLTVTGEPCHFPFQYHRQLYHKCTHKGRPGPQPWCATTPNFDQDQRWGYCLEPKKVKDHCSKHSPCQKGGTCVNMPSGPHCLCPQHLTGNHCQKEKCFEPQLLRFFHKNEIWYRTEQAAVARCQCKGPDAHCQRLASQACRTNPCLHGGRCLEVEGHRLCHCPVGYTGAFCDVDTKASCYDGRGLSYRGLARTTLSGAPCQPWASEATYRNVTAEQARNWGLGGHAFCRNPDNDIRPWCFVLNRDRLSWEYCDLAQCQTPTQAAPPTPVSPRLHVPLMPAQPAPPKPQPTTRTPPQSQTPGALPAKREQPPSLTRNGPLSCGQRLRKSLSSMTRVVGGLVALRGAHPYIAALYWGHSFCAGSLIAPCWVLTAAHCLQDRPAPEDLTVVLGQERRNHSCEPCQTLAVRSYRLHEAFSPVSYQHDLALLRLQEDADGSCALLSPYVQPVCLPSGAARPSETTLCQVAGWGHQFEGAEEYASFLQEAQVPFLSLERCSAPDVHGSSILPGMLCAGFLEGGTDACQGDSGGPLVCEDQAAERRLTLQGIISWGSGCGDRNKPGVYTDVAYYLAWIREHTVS

[2] = target: T2, human Factor XIIa-beta (human, UniProt P00748 354-615, limits assumed); test: SPR (Biacore), purified IgG captured on anti-human IgG, FXIIa beta 0-40 nM, 1:1 fit, 25 C
T2 construct: Bought from Enzyme Research Laboratories; also called FXIIa beta; FXIIa-beta
T2 sequence: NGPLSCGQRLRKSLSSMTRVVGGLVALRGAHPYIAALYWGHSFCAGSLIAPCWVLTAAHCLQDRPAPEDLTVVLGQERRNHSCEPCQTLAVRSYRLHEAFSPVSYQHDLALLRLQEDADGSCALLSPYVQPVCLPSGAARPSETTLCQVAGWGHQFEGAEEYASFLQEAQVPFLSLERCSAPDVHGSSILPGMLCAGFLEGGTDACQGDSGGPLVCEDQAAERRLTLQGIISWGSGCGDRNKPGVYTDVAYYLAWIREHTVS

[3] = target: T3, human Factor XIIa-alpha (human, UniProt P00748 20-615); test: cell-based or functional assay
T3 sequence: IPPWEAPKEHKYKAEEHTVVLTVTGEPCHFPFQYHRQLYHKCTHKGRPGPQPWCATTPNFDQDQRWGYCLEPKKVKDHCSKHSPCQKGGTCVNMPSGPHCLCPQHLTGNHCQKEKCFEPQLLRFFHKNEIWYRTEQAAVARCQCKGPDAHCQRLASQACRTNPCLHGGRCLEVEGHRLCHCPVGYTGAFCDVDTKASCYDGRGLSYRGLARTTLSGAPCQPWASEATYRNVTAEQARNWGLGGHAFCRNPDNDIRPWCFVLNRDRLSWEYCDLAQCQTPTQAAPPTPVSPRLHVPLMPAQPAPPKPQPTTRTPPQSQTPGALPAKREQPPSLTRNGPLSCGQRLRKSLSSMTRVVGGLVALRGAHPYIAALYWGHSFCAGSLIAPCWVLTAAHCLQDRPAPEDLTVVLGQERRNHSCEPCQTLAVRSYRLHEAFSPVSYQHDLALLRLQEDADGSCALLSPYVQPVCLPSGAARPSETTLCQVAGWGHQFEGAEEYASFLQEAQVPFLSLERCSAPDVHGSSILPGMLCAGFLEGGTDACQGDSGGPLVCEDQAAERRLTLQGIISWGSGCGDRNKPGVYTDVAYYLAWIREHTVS

[4] = target: T2, human Factor XIIa-beta; test: SPR (Biacore), purified IgG4 captured on anti-human IgG, FXIIa beta 0-40 nM, 1:1 fit, 25 C
[5] = target: T4, recombinant wild-type murine Factor XII (Mu-FXII) with C-terminal 8xHis-tag (mouse, UniProt Q80YC5 20-597); test: Western blot, non-reducing
T4 construct: cDNA of the entire Mu-FXII protein (GenBank NM_021489) expressed in Freestyle 293 cells, culture supernatant used; also called recombinant murine FXII; wild-type Mu-FXII
T4 sequence: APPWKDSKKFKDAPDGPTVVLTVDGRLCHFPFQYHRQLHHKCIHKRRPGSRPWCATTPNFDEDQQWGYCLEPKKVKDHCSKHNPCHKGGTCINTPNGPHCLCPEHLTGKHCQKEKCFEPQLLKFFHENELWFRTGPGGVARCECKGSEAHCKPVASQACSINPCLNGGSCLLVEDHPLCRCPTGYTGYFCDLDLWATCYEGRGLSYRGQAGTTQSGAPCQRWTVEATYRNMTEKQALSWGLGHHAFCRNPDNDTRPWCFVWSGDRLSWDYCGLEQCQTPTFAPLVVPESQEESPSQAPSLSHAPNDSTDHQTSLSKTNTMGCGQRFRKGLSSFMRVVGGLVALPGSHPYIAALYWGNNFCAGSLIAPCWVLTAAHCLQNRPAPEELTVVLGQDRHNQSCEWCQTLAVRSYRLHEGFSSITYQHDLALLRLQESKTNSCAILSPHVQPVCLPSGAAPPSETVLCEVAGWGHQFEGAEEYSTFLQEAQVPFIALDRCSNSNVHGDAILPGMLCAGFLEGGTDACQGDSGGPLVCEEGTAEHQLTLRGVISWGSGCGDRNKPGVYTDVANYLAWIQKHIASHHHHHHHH
Method: Proteins were then transferred electrophoretically onto nitrocellulose filters and blocked for 1 hour in 5% Milk powder in Tris-buffered saline with 0.05% Tween-20 (TTBS). Filters were then incubated for 1 hour with either 3F7 mAb or an anti-His mAb 3H3 (both at […] in TTBS with 5% Milk powder), washed thoroughly with TTBS, then incubated for a further hour with anti-human IgG-FITC or anti-mouse IgG-FITC, respectively (Millipore, USA; both at 0.25 mg/ml in TTBS with 5% Milk powder). Following further washing of membranes in TTBS, Ab-FITC bound proteins were visualized using a Typhoon variable mode analyzer (GE Healthcare, USA).

[6] = target: T2, human Factor XIIa-beta; test: SPR (Biacore A100), unpurified IgG4 supernatant captured on anti-human IgG, single FXIIa beta concentration (100 nM), 37 C, 1:1 fit; estimated
Method: Anti-human (Goat anti-human IgG (gamma) mouse adsorbed, Invitrogen, Cat No. H10500) was chemically immobilised on a CM-5 sensor surface using amine coupling chemistry. Culture supernatants were diluted 1/60 with running buffer before capture. Antibodies were captured for 180 seconds representing an average capture of 800 response units (RU). FXIIa beta was then injected at zero and 100 nM for 180 seconds, and dissociated for 180 seconds. All assays were conducted on a Biacore A100 instrument at 37 degrees Celsius and the data fitted to a 1:1 kinetic model.

[7] = target: T5, human Factor XII (human, UniProt P00748 20-615); test: SPR (Biacore), purified IgG captured on anti-human IgG, FXII 0-500 nM, 1:1 fit, 25 C
T5 construct: Zymogen bought from Enzyme Research Laboratories; also called FXII
T5 sequence: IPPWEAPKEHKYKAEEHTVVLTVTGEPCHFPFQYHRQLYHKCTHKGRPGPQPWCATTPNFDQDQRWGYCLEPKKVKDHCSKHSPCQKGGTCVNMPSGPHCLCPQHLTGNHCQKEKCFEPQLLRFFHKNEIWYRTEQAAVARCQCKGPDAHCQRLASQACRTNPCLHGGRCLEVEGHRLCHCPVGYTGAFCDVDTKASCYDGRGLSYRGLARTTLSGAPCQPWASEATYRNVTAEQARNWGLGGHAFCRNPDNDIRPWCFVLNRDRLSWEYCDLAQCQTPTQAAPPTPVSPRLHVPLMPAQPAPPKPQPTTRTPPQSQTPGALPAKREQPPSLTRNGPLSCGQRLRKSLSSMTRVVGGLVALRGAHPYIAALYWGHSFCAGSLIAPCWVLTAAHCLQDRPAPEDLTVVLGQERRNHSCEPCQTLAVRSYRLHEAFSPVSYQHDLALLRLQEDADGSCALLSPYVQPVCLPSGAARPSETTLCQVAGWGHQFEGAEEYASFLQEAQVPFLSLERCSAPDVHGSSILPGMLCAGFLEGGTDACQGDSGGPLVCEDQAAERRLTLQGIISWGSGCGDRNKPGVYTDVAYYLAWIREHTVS

potency in the FXIIa amidolytic activity assay, against OT-2 [1]: ~2 fold | Kd [2]: 6.2 nM | % Inhibition, ratio FXIIa-alpha:Antibody 1:0.1 [3]: 35.5% | % Inhibition, ratio FXIIa-alpha:Antibody 1:0.1 (second 3F7 block) [3]: 38.3% | % Inhibition, ratio FXIIa-alpha:Antibody 1:0.2 [3]: 62.5% | % Inhibition, ratio FXIIa-alpha:Antibody 1:0.2 (second 3F7 block) [3]: 66.8% | % Inhibition, ratio FXIIa-alpha:Antibody 1:0.5 [3]: 91.9% | % Inhibition, ratio FXIIa-alpha:Antibody 1:0.5 (second 3F7 block) [3]: 91.4% | % Inhibition, ratio FXIIa-alpha:Antibody 1:1 [3]: 97.9% | % Inhibition, ratio FXIIa-alpha:Antibody 1:1 (second 3F7 block) [3]: 96.1% | % Inhibition, ratio FXIIa-alpha:Antibody 1:2 [3]: 100% | % Inhibition, ratio FXIIa-alpha:Antibody 1:2 (second 3F7 block) [3]: 100% | % Inhibition, ratio FXIIa-alpha:Antibody 1:5 [3]: 100% | % Inhibition, ratio FXIIa-alpha:Antibody 1:5 (second 3F7 block) [3]: 100% | % Inhibition, ratio FXIIa-alpha:Antibody 1:10 [3]: 100% | % Inhibition, ratio FXIIa-alpha:Antibody 1:10 (second 3F7 block) [3]: 100% | Kd [4]: 8.6 nM | koff [4]: 0.0011 s⁻¹ | kon [4]: 120000 M⁻¹ s⁻¹ | binding result [5]: binds | Kd [6]: 33 nM | Kd [7]: 121 nM
B1: monoclonal antibody 3F7 (fully human IgG4/lambda) (antibody, V domains shown)
VH: EVQLLESGGGLVQPGGSLRLSCAASGFTFSKYIMQWVRQAPGKGLEWVSGIRPSGGTTVYADSVKGRFTISRDNSKNTLYLQMNSLRAEDTAVYYCARALPRSGYLISPHYYYYALDVWGQGTTVTVSS
VL: QSELTQPPSASGTPGQRVTISCSGSSSNIGRNYVYWYQQVPGTAPKLLIYSNNQRPSGVPDRFSGSKSGTSASLVISGLRSEDEADYYCAAWDASLRGVFGGGTKLTVLG
notes: also called 3F7 mAb; MAb 3F7
